Patent publication US20240325562A1, “INTERNALIZING BINDING MOLECULES” (LinXis B.V., priority 2020, published 2024)
Blank lines part the entries; values can stand above or below the molecule they belong to.

Tests used:
hPDGFRB = hPDGFRB (Homo sapiens, UniProt P09619); experiment: Competition assays of PDGFRB VHHs on hPDGFRB; format: binding; conditions: IRDye800-conjugated SP26P as reporter
Procedure: (§1) Biparatopic VHH constructs contain two VHH which bind to a different epitope, i.e. which are non-competitive binders. To identify (a) pair(s) of non-competitive binders, competition assays were performed. In the example shown, an Alexa fluor-conjugate of the high affine VHH 13F11 was used as the reporter VHH (13F11-A647, see example 10.2). In the assay, a non-saturating amount (10 nM) of 13F11-A647 was incubated with immobilized hIGF2R-ECD in the presence or absence of 250 nM unconjugated competitor VHH to allow competition to take place.
(§2) Similar as to in example 6.1, competition assays were performed to identify unique hPDGFRB- or rPDGFRB binders. Across 10 PDGFRB-binding VHHs obtained from libraries 1 and 2 (e.g. the VHH raised against hPDGFRB), four main groups were identified being first SP01P, SP02P, SP07P and SP13P, second SP05P, SP08P and SP10P, third SP12P and SP20P and finally SP14P. All VHH within each of the first three groups mutually competed.
To evaluate whether the obtained VHHs would qualify as building blocks for multivalent VHH constructs that bind hPDGFRB as well as rPDGFRB (e.g. ‘species cross-reactive’ VHH constructs), competition assays were performed using the most promising VHHs SP02 (raised against hPDGFRB) and SP26P (raised against rPDGFRB).

rPDGFRB = rPDGFRB (Rattus norvegicus, UniProt Q05030); experiment: Competition assays of PDGFRB VHHs on rPDGFRB; format: binding; conditions: VHHs from libraries 3 and 4
rPDGFRB, sequence (Q05030 32-1097): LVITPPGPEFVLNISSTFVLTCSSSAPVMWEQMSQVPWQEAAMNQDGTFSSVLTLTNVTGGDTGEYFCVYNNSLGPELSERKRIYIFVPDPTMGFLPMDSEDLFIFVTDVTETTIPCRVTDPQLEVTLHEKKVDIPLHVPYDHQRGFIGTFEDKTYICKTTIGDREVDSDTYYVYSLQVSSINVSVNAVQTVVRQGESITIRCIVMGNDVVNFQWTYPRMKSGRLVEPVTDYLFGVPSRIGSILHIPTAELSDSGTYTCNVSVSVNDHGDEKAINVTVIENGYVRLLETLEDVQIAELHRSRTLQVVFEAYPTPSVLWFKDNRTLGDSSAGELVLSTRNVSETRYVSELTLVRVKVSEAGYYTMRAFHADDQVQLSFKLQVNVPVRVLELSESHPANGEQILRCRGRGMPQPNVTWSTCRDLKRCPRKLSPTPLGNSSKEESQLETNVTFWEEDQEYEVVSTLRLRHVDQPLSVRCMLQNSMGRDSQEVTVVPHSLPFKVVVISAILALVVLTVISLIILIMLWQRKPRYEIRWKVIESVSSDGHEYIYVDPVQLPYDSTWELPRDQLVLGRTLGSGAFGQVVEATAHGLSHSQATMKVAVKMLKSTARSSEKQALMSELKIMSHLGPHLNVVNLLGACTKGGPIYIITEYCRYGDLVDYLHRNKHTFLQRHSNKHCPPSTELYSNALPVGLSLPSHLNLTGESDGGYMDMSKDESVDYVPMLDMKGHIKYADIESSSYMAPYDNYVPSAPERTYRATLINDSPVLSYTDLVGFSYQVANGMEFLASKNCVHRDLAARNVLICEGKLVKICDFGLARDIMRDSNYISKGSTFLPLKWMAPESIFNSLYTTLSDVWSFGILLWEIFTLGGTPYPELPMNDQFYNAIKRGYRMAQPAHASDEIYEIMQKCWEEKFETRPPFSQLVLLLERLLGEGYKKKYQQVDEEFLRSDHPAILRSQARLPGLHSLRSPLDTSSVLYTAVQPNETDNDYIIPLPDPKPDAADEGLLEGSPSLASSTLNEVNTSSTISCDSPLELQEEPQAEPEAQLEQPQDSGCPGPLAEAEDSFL
Procedure: as §1, §2

PDGFRB = molecular target: T1, PDGFRB (Rattus norvegicus, UniProt Q05030); experiment: Staining of rat tissue cryo-sections for PDGFRB; conditions: 50 nM, overnight 4° C.
T1 construct: from tissue; host or cells: cryo-sections of rat tissues (liver, kidney, spleen, heart, ileum, brain) of BDL and SHAM rats
T1 sequence (Q05030 32-1097): as above
Procedure: To evaluate whether SP02-SP26-ABD bound to PDGFRB as (over-) expressed in the cirrhotic liver, various cryo-sections of tissues (liver, kidney, spleen, heart, ileum, brain) obtained from both healthy (SHAM) and cirrhotic (BDL) rats (preparation procedure as outlined in example 15) were stained with SP02-SP26-ABD conjugated to Alexa Fluor 647 (SP02-SP26-ABD-A647, conjugation method as described in example 10.2.). Staining was performed with 50 nM SP02-SP26-ABD-AF647 during overnight incubation at 4° C. Subsequently, the sections were washed and stained with DAPI, mounted with mowiol mounting medium (Merck), and imaged on a Zeiss LSM700 laser scanning confocal microscope with a 20× objective. […] In the tissues other than the liver, no upregulation of PDGFRB was observed.

hIGF2R-ECD = molecular target: T2, hIGF2R-ECD (Homo sapiens, UniProt P11717); experiment: Competition assay with 13F11-A647 as reporter VHH on immobilized hIGF2R-ECD; format: binding; conditions: 10 nM 13F11-A647, 250 nM unconjugated competitor VHH
T2 construct: immobilized recombinant human extracellular domain of IGF2R (hIGF2R-ECD) was used
Procedure: With the term “compete” is meant that in a competition assay, such as for instance described in Example 6 of the present invention, the addition of a binding molecule induces a significant decrease in binding of a given VHH, i.e., the VHH to which the competing is determined. “Significant” in this respect is preferably a decrease of >5%, preferably >10% when 250 nM of a binding molecule is added to 10 nM of a fluorescence labelled VHH in an ELISA. […] The same test conditions and threshold apply to a binding molecule directed to PDGFRB when determining whether a binding molecule competes with a given VHH.
as §1

[1] = test system: A549 cells that endogenously express hIGF2R; experiment: Internalization by fluorescence microscopy after acid wash, A549 cells; format: cell-based, human; conditions: 25 nM Alexa fluor 647 conjugate
Procedure: (§3) First, Alexa fluor 647-conjugates of the VHH 13F11 and the biparatopic VHH construct […] were added to A549 cells that endogenously express hIGF2R (FIG. 16A), NIH 3T3 2.2 cells that were transiently transfected with hIGF2R (FIG. 16B), or mock transfected NIH 3T3 2.2 cells (as a negative control). For this, the cells were incubated with 25 nM of the VHH or the VHH construct. Before fluorescent microscopy readout, to ensure that only signal of internalized VHH or mouse anti-IGF2R was present, an acid wash (0.2M glycine-HCl, 150 mM NaCl, pH 2.3) was used to remove VHH or mouse anti-IGF2R bound to the target receptors on the cell surface. The efficiency of the acid wash procedure was verified by incubating the hIGF2R transfected NIH 3T3 2.2 cells with 13F11-13E8-A647 on ice and subsequently treating these cells with an acid wash while remaining on ice to prevent internalization (FIG. 16D). […] Summarizing, biparatopic 13F11-13E8 clearly internalizes in cells expressing hIGF2R on the cell surface.

[2] = test system: mock transfected NIH 3T3 2.2 cells; experiment: Internalization by fluorescence microscopy after acid wash, mock transfected cells; format: cell-based; conditions: 25 nM Alexa fluor 647 conjugate, negative control cells
Procedure: as §3

[3] = test system: NIH 3T3 2.2 cells that were transiently transfected with hIGF2R; experiment: Internalization by fluorescence microscopy after acid wash, hIGF2R-transfected NIH 3T3 2.2 cells; format: cell-based, human; conditions: 25 nM Alexa fluor 647 conjugate
Procedure: as §3

IGF2R [4] = molecular target: T3, IGF2R (Rattus norvegicus, UniProt G3V824); experiment: Staining of rat tissue cryo-sections for IGF2R; conditions: 50 nM, overnight 4° C.
T3 construct: from tissue; host or cells: cryo-sections of rat tissues (liver, kidney, spleen, heart, ileum, brain); Sprague-Dawley BDL and SHAM rats
T3 sequence (G3V824 36-2481): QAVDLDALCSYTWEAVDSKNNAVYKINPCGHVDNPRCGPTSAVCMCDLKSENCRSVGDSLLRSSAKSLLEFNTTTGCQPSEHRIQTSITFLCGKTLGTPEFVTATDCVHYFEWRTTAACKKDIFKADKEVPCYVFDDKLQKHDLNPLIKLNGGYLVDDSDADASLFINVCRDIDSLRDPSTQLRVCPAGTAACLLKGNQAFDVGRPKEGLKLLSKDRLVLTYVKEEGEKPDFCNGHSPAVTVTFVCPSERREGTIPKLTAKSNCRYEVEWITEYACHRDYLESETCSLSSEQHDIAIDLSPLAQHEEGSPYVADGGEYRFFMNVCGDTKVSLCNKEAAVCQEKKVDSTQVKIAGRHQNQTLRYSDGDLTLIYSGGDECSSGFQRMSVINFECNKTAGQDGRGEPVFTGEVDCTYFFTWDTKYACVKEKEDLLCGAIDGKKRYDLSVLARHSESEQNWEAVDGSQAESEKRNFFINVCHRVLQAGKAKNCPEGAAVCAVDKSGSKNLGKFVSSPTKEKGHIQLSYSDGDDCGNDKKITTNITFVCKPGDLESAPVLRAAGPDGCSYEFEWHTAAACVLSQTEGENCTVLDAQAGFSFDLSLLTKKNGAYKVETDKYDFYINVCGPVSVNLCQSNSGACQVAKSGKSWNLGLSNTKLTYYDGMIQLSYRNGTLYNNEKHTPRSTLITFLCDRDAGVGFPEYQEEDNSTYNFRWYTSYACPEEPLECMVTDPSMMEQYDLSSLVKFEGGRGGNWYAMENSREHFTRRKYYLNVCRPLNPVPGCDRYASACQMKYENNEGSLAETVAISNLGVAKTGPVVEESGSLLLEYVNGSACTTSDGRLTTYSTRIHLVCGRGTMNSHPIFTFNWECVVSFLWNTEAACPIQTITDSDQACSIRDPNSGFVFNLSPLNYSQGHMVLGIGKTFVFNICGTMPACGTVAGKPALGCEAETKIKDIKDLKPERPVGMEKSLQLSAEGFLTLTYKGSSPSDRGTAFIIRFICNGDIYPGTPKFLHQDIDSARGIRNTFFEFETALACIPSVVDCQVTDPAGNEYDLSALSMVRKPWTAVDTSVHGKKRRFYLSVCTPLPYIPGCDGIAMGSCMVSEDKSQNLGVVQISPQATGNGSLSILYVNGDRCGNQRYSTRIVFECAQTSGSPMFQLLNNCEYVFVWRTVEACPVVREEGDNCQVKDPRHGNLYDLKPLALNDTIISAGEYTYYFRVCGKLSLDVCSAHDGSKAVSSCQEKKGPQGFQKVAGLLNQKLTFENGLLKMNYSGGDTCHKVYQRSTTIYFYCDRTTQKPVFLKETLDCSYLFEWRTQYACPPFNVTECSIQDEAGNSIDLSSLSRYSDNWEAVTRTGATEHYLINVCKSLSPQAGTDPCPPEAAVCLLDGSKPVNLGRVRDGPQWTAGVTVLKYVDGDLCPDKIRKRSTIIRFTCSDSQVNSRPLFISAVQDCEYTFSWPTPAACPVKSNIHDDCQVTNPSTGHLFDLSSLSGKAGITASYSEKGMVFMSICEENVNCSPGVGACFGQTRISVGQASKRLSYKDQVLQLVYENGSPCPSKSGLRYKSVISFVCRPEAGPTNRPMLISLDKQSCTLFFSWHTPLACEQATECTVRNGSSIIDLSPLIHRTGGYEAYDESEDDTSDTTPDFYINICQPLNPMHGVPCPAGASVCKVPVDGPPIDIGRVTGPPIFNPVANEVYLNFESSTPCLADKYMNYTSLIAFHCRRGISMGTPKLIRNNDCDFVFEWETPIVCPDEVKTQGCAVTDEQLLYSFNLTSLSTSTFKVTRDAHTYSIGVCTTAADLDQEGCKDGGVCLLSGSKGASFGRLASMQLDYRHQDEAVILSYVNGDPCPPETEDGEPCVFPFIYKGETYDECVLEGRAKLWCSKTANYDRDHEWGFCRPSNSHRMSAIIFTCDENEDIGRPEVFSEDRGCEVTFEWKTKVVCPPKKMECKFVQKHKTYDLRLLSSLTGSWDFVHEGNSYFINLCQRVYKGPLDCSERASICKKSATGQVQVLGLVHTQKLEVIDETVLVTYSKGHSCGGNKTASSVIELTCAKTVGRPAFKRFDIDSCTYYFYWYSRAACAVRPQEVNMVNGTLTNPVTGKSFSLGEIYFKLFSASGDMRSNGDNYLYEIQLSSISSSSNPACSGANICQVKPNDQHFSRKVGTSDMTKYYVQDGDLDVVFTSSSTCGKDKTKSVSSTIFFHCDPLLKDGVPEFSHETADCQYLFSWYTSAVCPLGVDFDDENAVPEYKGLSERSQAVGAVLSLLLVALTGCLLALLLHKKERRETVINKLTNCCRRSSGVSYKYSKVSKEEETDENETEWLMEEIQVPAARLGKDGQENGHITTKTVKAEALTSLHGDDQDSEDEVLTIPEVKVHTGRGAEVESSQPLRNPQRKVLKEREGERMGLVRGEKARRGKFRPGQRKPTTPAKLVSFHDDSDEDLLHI
Procedure: To evaluate whether F11E8-ABD bound to IGF2R as (over-) expressed in the cirrhotic liver, various cryo-sections of tissues (liver, kidney, spleen, heart, ileum, brain) obtained from both healthy (SHAM) and cirrhotic (BDL) rats (preparation procedure as outlined in example 15) were stained with 13F11-13E8-ABD conjugated to Alexa Fluor 647 (13F11-13E8-ABD-A647, conjugation method as described in example 10.2.). Staining was performed with 50 nM 13F11-13E8-ABD-AF647 during overnight incubation at 4° C. Subsequently, the sections were washed and stained with DAPI, mounted with mowiol mounting medium (Merck) and imaged on a Zeiss LSM700 laser scanning confocal microscope with a 20× objective. […] In the tissues other than the liver, no upregulation of IGF2R was observed.

IGF2R [5] = molecular target: T3, IGF2R; experiment: In situ detection of infused test conjugate in liver sections; format: in vivo; conditions: for detection of conjugate in liver: one hour after 5 mg/kg i.v., anti-VHH antiserum
Procedure: (§4) After catheterization and hemodynamic stabilization, rats were dosed with 5 mg/kg test conjugate or mock conjugate i.v. through the lateral tail vein and pressures were monitored continuously (example 15.1.). One hour after dosing, animals were sacrificed after which tissues were isolated for ex vivo analysis (example 15.2.).
After isolation, livers obtained from test conjugate-infused BDL and SHAM rats were fixated with paraformaldehyde, soaked in 30% (w/v) sucrose in PBS, and sectioned using cryo-microtome.
To detect the test conjugate in situ, tissue sections were stained with a rabbit polyclonal anti-VHH antiserum recognizing the 13F11-13E8 moiety of the conjugate, followed by an anti-rabbit antibody conjugated to the fluorophore Alexa-488 for visualization by confocal fluorescence microscopy (cf. example 14).

[6] = test system: BDL rats (portal hypertension); experiment: Portal pressure and mean arterial pressure in BDL and SHAM rats; format: in vivo, Sprague-Dawley rats; conditions: 5 mg/kg i.v.
From the text: To evaluate in vivo functionality, 13F11-13E8-ABD was conjugated to a Y27632-maleimide modified functional moiety (1e) (the test conjugate) as outlined in example 10.2. To provide a comparator, a similar amount of 13F11-13E8-ABD was conjugated to N-ethylmaleimide in a parallel and similar preparation (the mock conjugate).
To establish animals displaying portal hypertension (Klein et al, Fibrosis: Methods and Protocols. Methods in Molecular Biology. 2017 (1627): 91-122.), Sprague-Dawley rats were subjected to bile duct ligation (BDL) through median laparotomy under ketamine/xylazine-induced anaesthesia i.p. (BDL rats). To provide healthy controls, a second cohort of rats was subjected to the same surgical procedure except for actual ligation of the bile duct (SHAM rats). Surgery was followed-up with pain control medication (carprofen s.c.). Approximately five weeks after surgery, ketamine/xylazine anesthetized rats were subjected to median laparotomy, after which one catheter was inserted through an ileocecal vein to the portal vein, and one catheter was inserted into the femoral artery. The catheters were connected to pressure recording equipment, for assessment of portal pressure and mean arterial pressure, respectively.
as §4

[7] = BDL rats, monitored for one hour

hPDGFRB, sequence (P09619 33-532 limits assumed): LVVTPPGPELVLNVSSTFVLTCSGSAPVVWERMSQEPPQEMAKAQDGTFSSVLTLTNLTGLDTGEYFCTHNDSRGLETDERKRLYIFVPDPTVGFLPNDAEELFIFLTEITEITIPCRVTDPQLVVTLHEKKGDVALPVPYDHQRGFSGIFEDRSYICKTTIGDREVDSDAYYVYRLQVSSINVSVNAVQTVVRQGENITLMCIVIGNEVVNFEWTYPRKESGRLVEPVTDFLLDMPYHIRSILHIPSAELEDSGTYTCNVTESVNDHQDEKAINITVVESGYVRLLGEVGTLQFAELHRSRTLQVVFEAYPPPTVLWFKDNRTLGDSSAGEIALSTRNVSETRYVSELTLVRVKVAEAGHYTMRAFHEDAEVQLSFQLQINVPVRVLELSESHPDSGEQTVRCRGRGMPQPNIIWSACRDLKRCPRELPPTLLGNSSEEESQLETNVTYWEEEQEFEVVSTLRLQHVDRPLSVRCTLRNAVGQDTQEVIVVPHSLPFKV

competition between SP02 and SP26P (hPDGFRB): did not compete
epitope compared to SP27P, SP28P, SP30P, SP31P and SP36P (rPDGFRB): unique epitope
B1: SP26P: VHH single domain antibody targeting PDGFRB, SEQ ID NO: 153 (protein)
VHH: EVQLVESGGGLVQAGGSLRLSCAASGRSFSSSVMGWFRQTPGKEREFVAATRWTAASTHYADSVKGRFTISRDHAENAVFLQMNSLKPEDTAVYYCAAGNYLDTAQYRYNYWGQGTQVTVSS

staining of cirrhotic (BDL) rat liver (PDGFRB): strongly stains activated fibroblasts
staining of normal (SHAM) rat liver (PDGFRB): only background signal was detected
B2: SP02-SP26-ABD-AF647: SP02-SP26-ABD conjugated to Alexa Fluor 647 (conjugate)
chain: EVQLVESGGGLVQAGGSLRLSCAASESISSIEQMGWFRQAPGKQRALVAINTYGGRTVYTNSVEGRFTMSRDSAKNMVYLQMTSLEPEDTAVYYCYAQTTAWRGGVWGQGTQVTVSSGGGGSGGGGSGGGGSEVQLVESGGGLVQAGGSLRLSCAASGRSFSSSVMGWFRQTPGKEREFVAATRWTAASTHYADSVKGRFTISRDHAENAVFLQMNSLKPEDTAVYYCAAGNYLDTAQYRYNYWGQGTQVTVSS
modifications: left off: large carriers; small tags and cut ends

competition with reporter VHH 13F11-A647 (hIGF2R-ECD): competed with 13F11-A647
B3: 13F11: VHH single domain antibody targeting IGF2R, SEQ ID NO: 273 (protein)
VHH: EVQLVESGGRLVQPGDSLRLSCAASGRTFSDNAMGWFRQAPGKERRFVAGISWAGGSTYYSDSVKGRFTISRDNAKNTVYLQMNSLKPEDTAVYYCAAGLRAWVQRMPKDYNYWGQGTQVTVSS
internalization [1]: no internalization was observed
internalization [2]: no internalization was observed
internalization [3]: internalized

staining of cirrhotic (BDL) rat liver (IGF2R [4]): strongly stains activated fibroblasts
staining of normal (SHAM) rat liver (IGF2R [4]): only background signal was detected
B4: 13F11-13E8-ABD-AF647: 13F11-13E8-ABD conjugated to Alexa Fluor 647 (conjugate)
chain: EVQLVESGGRLVQPGDSLRLSCAASGRTFSDNAMGWFRQAPGKERRFVAGISWAGGSTYYSDSVKGRFTISRDNAKNTVYLQMNSLKPEDTAVYYCAAGLRAWVQRMPKDYNYWGQGTQVTVSSGGGGSGGGGSGGGGSEVQLVESGGGLVQAGGSLRLSCAASRSISPMGWYRQAPGKQRELVAIMPSSGPPIYADSVQGRFTISRDNAKNTVYLQMNSLKPEDTAVYYCNVGGGYWGQGTQVTVSS
modifications: left off: large carriers; small tags and cut ends

B5: test conjugate: 13F11-13E8-ABD conjugated to a Y27632-maleimide modified functional moiety (1e) (conjugate)
chain: B4 chain
modifications: non-natural residues; left off: large carriers; small tags and cut ends
detection of conjugate in liver (IGF2R [5]; BDL rats): detected in the liver of BDL rats
distribution in liver versus (tissue) distribution of IGF2R (IGF2R [5]; BDL rats, second staining with 13F11-13E8-A647): overlapped
detection of conjugate in liver (IGF2R [5]; SHAM rats): not in the liver of SHAM rats
mean arterial pressure (MAP) [6, 7]: remained constant
portal pressure (PP) [6, 7]: gradual decrease of portal pressure
portal or arterial pressure ([6]; SHAM rats): neither the test conjugate nor the mock conjugate affected portal or arterial pressure
